Source: PMC6757138, “Biochemical and biophysical characterization of purified native CD20 alone and in complex with rituximab and obinutuzumab” (Scientific Reports, 2019)

Molecular target: the molecule itself
Experiment: AUC; sedimentation velocity, 60,000 rpm, 20 °C; CD20 at 0.5 mg/ml in 20 mM Tris pH 8.0, 150 mM NaCl, CALX-173-GK; also at 0.044 mg/ml after dilution with CALX-173-GK or DDM (0.05%) buffer, where the distribution shifts in favour of the monomer

B1: CD20 (full length, wild type, C-terminal His6 tag) (natural protein, human, UniProt P11836 1-297, looked up)
chain: MTTPRNSVNGTFPAEPMKGPIAMQSGPKPLFRRMSSLVGPTQSFFMRESKTLGAVQIMNGLFHIALGGLLMIPAGIYAPICVTVWYPLWGGIMYIISGSLLAATEKNSRKCLVKGKMIMNSLSLFAAISGMILSIMDILNIKISHFLKMESLNFIRAHTPYINIYNCEPANPSEKNSPSTQYCYSIQSLFLGILSVMLIFAFFQELVIAGIVENEWKRTCSRPKSNIVLLSAEEKKEQTIEIKEEVVGLTETSSQPKNEEDIEIIPIQEEEEEETETNFPEPPQDQESSPIENDSSP
notes: CD20, human, UniProt P11836, full length and wild type, from plasmid pETR17026; Integral membrane protein held in calixarene detergent micelles (CALX-173-GK, or DDM after dilution); also called purified native CD20; recombinant native CD20; source: gel filtration in CALX-173-GK; not shown: His6, C-terminal, kept
- binding result: binds
